Target: T1, Fas (mouse (endogenous in WEHI-231)) (UniProt P25446)
T1 sequence: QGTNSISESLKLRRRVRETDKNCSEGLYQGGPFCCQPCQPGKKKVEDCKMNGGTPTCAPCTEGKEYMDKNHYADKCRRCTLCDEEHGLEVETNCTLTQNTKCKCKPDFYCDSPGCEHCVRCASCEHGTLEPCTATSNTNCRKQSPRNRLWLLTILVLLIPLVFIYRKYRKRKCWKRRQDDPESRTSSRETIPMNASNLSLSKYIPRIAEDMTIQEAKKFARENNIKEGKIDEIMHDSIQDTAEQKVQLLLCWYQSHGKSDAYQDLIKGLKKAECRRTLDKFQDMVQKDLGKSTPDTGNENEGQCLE

FasL (from UniProt P41047 1-279) (ligand)
survival of p21–35-loaded WEHI-231 cells co-cultured with the cytolytic CD4+ T cell clone R3TB7, restored by increasing concentrations of an anti-FasL antibody (Annexin V / 7-AAD) (% of WEHI-231 cell survival): 80

Source: publication PMC3467281
